Article PMC3713010, “Sox2 Transcriptionally Regulates Pqbp1, an Intellectual Disability-Microcephaly Causative Gene, in Neural Stem Progenitor Cells”

T1: Oct6 DNA-binding domain (BD-Oct6) (Mus musculus (B6), UniProt P21952 317-416)
T1 sequence: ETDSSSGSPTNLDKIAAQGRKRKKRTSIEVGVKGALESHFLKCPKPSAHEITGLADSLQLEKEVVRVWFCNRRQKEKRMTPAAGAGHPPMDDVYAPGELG

T2: Brn2 DNA-binding domain (BD-Brn2) (Mus musculus (B6), UniProt P31360 336-435)
T2 sequence: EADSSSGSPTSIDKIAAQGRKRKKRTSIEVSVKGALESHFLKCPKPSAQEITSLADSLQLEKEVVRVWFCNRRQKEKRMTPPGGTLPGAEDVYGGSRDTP

B1: 119 (dsDNA)
DNA 1: GGGGGCCGATCGCTTTGTTCTACATTTTATGTTCTATCCCCC
DNA 2: GGGGGATAGAACATAAAATGTAGAACAAAGCGATCGGCCCCC
B2: 14 (dsDNA)
DNA 1: GGGGGGTCAGGATTTTGTGTGTGGATTAACTGTATCATCCCCC
DNA 2: GGGGGATGATACAGTTAATCCACACACAAAATCCTGACCCCCC
B3: 123 (dsDNA)
DNA 1: GGGGGAGTGCTATTTTGTCGAGAAATTGTAGAAGACACCCCC
DNA 2: GGGGGTGTCTTCTACAATTTCTCGACAAAATAGCACTCCCCC
B4: 128 (dsDNA)
DNA 1: GGGGGAATATCAGTGTAATGATTAACAGACAATGGCAGAGGCCCCC
DNA 2: GGGGGCCTCTGCCATTGTCTGTTAATCATTACACTGATATTCCCCC
B5: 5 (dsDNA)
DNA 1: GGGGGTGTAGGTCATTGTGGCCTCAAATTTGGTAATGTAACCCCC
DNA 2: GGGGGTTACATTACCAAATTTGAGGCCACAATGACCTACACCCCC
B6: 12 (dsDNA)
DNA 1: GGGGGAGTATGAGTTTGTATATGTTGATTAACCAAACACTCCCCC
DNA 2: GGGGGAGTGTTTGGTTAATCAACATATACAAACTCATACTCCCCC
B7: 124 (dsDNA)
DNA 1: GGGGGCTTATGCTTCTATTCTACACAATTCCACAACCCCCC
DNA 2: GGGGGGTTGTGGAATTGTGTAGAATAGAAGCATAAGCCCCC
B8: 126 (dsDNA)
DNA 1: GGGGGAATGTTGTCATAATTGAAAAAGACAAAGCACTAATCCCCC
DNA 2: GGGGGATTAGTGCTTTGTCTTTTTCAATTATGACAACATTCCCCC
B9: 4c (dsDNA)
DNA 1: GGGGGTAAAATTAACAAACAAGTTACATTATCTAATATACACCCCC
DNA 2: GGGGGTGTATATTAGATAATGTAACTTGTTTGTTAATTTTACCCCC
B10: 17 (dsDNA)
DNA 1: GGGGGTTTAAAGATTTGTTTCTTTATTATATGTAAGTACCCCC
DNA 2: GGGGGTACTTACATATAATAAAGAAACAAATCTTTAAACCCCC
B11: 122 (dsDNA)
DNA 1: GGGGGGAAAAGGATTTGTACTTAAATAAGCACCTGGCCCCCC
DNA 2: GGGGGGCCAGGTGCTTATTTAAGTACAAATCCTTTTCCCCCC
B12: 4a (dsDNA)
DNA 1: GGGGGGACTTAATTGTGAGTCTCTGTAAAATTAACAAACAAGTTACCCCCC
DNA 2: GGGGGGTAACTTGTTTGTTAATTTTACAGAGACTCACAATTAAGTCCCCCC
B13: 3 (dsDNA)
DNA 1: GGGGGACCTATACTTTGTTTTTATTGCCTAGTAATCCCCC
DNA 2: GGGGGATTACTAGGCAATAAAAACAAAGTATAGGTCCCCC
B14: 7 (dsDNA)
DNA 1: GGGGGCAACCACCTCTAAATGCCTACAAATTGTATGGTCATCCCCC
DNA 2: GGGGGATGACCATACAATTTGTAGGCATTTAGAGGTGGTTGCCCCC
B15: 4b (dsDNA)
DNA 1: GGGGGAGTCTCTGTAAAATTAACAAACAAGTTACCCCCC
DNA 2: GGGGGGTAACTTGTTTGTTAATTTTACAGAGACTCCCCC
B16: 16a (dsDNA)
DNA 1: GGGGGGTGAACCCTTTCAGATTTAGTGACGTAGCTTCACAAAGTGATTAACCCCC
DNA 2: GGGGGTTAATCACTTTGTGAAGCTACGTCACTAAATCTGAAAGGGTTCACCCCCC
B17: 8 (dsDNA)
DNA 1: GGGGGGCTGTAACAGAATACCTGACAAAAGCAACTTCCCCC
DNA 2: GGGGGAAGTTGCTTTTGTCAGGTATTCTGTTACAGCCCCCC
B18: 127 (dsDNA)
DNA 1: GGGGGTTTTGTTTTTTGTTTAAAGCAATAACATATTCAGCCCCC
DNA 2: GGGGGCTGAATATGTTATTGCTTTAAACAAAAAACAAAACCCCC
B19: 16b (dsDNA)
DNA 1: GGGGGGTAGCTTCACAAAGTGATTAACACATGGATACCCCC
DNA 2: GGGGGTATCCATGTGTTAATCACTTTGTGAAGCTACCCCCC
B20: 125 (dsDNA)
DNA 1: GGGGGGGGATGCAATTGTCAGTCACCTTTCTTGAGCCTGTGGGACCCCC
DNA 2: GGGGGTCCCACAGGCTCAAGAAAGGTGACTGACAATTGCATCCCCCCCC
B21: 121 (dsDNA)
DNA 1: GGGGGGTGCTCAATTTGTGTTAGCTATTACTAGCAAGTCATTAACTCACCCCCC
DNA 2: GGGGGGTGAGTTAATGACTTGCTAGTAATAGCTAACACAAATTGAGCACCCCCC
B22: 120 (dsDNA)
DNA 1: GGGGGTCCACACTCTATAATCTCACATTGTTTGGCACCCCCCC
DNA 2: GGGGGGGTGCCAAACAATGTGAGATTATAGAGTGTGGACCCCC
B23: 6 (dsDNA)
DNA 1: GGGGGAGGACTTAATTGTTCGCATTTCTGTATTCTGCCCCC
DNA 2: GGGGGCAGAATACAGAAATGCGAACAATTAAGTCCTCCCCC
B24: 15 (dsDNA)
DNA 1: GGGGGAGATCTTTACAAATTTCTATATTAGAGTTTTTTGTCCCCC
DNA 2: GGGGGACAAAAAACTCTAATATAGAAATTTGTAAAGATCTCCCCC
B25: 13 (dsDNA)
DNA 1: GGGGGTCTCCTGCTTTGTAGTCACAGAGTAGTCAAGAAGGGCTCCCCC
DNA 2: GGGGGAGCCCTTCTTGACTACTCTGTGACTACAAAGCAGGAGACCCCC

Target: Pax6 DNA-binding domain (BD-Pax6) (Mus musculus (B6), UniProt P63015 190-289)
Experiment: EMSA; 10% glycerol, 20 mM HEPES pH 7.8, 45 mM KCl, 10 mM NaCl, 1 mM EDTA, 1 mM DTT, 0.2 ug/uL BSA, 0.1% NP-40, 50 ng poly-dIdC; 20 ng each GST protein; room temperature 30 min (heterodimers 4 C); 6% PAGE 0.25x TBE
Conditions: protein: recombinant; tags: GST (N-terminal, pGEX-6P-1); label: 32P-dCTP fill-in of the 5' (dG)5 overhangs of both strands (Methods; control probes are given with GGG)
Outline: (§1)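 DNA binding of transcription factor DNA-binding domains to candidate cis-elements was read from band radioactivity in the expected shift region. The GST-tagged domains came from E. coli BL21 via glutathione-sepharose; probes were annealed oligonucleotides labelled with 32P-dCTP. Each assay used 20 ng protein, 40,000–50,000 cpm probe and 50 ng poly-dIdC for 30 min at room temperature, followed by 6% polyacrylamide electrophoresis in 0.25×TBE at 4°C.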

Chain of Pax6 DNA-binding domain (BD-Pax6) (P63015 190-289): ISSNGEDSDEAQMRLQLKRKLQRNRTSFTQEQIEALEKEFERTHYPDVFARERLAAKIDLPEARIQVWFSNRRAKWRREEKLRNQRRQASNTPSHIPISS

Binder | binding result
B1 | no binding
B2 | no binding
B3 | no binding
B4 | binds
B5 | no binding
B6 | no binding
B7 | no binding
B8 | binds
B9 | no binding
B10 | no binding
B11 | no binding
B12 | no binding
B13 | no binding
B14 | no binding
B15 | no binding
B16 | no binding
B17 | no binding
B18 | binds
B19 | no binding
B20 | no binding
B21 | binds
B22 | no binding
B23 | no binding
B24 | no binding
B25 | no binding

Target: T1, Oct6 DNA-binding domain (BD-Oct6)
Experiment: as above
Conditions: protein: recombinant; tags: GST (N-terminal, pGEX-6P-1); label: 32P-dCTP fill-in of the 5' (dG)5 overhangs of both strands (Methods; control probes are given with GGG)
Outline: as §1

Binder | binding result
B1 | no binding
B2 | no binding
B3 | no binding
B4 | no binding
B5 | no binding
B6 | no binding
B7 | no binding
B8 | binds
B9 | binds
B10 | binds
B11 | binds
B12 | binds
B13 | no binding
B14 | no binding
B15 | binds
B16 | binds
B17 | no binding
B18 | binds
B19 | binds
B20 | binds
B21 | binds
B22 | binds
B23 | binds
B24 | no binding
B25 | no binding

Target: T2, Brn2 DNA-binding domain (BD-Brn2)
Experiment: as above
Conditions: protein: recombinant; tags: GST (N-terminal, pGEX-6P-1); label: 32P-dCTP fill-in of the 5' (dG)5 overhangs of both strands (Methods; control probes are given with GGG)
Outline: as §1

Binder | binding result
B1 | no binding
B2 | no binding
B3 | no binding
B4 | no binding
B5 | binds
B6 | binds
B7 | no binding
B8 | binds
B9 | binds
B10 | binds
B11 | binds
B12 | binds
B13 | no binding
B14 | no binding
B15 | binds
B16 | binds
B17 | no binding
B18 | binds
B19 | binds
B20 | binds
B21 | binds
B22 | no binding
B23 | binds
B24 | no binding
B25 | no binding
